Assay results from patent US20240174712A1, “COMPOSITIONS AND METHODS FOR PURIFYING ALPHA-1 ANTITRYPSIN USING PEPTIDE LIGANDS” (North Carolina State University, priority 2022, published 2024).
No end group written: not given here.

Key:
human AAT = target: T1, human AAT (Homo sapiens, UniProt P01009); assay: Static binding capacity and affinity of peptide-Toyopearl resins (AAT adsorption isotherms, Langmuir fit); conditions: pure AAT in PBS at pH 7.4; Langmuir isotherm fit
T1 construct: purchased CSL Behring (King of Prussia, PA, USA)
Procedure: Static binding capacity and affinity of peptide-Toyopearl resins. […] Aliquots of 50 μL of peptide-Toyopearl resin were transferred in a tube, swollen in 20% v/v aqueous methanol, washed in MilliQ water, and finally equilibrated in PBS at pH 7.4. The resin aliquots were individually incubated with 0.5 mL of a solution of AAT at different concentrations (0.1, 0.25, 0.5, 0.75, 1.0, 1.5, 2.0, and 5.0 mg/mL) for 1.5 hrs at room temperature under gentle rotation. After incubation, the resin aliquots were centrifuged and the supernatants collected as unbound (UB) fraction; the resins were also washed with 0.5 mL of PBS for 30 min, and the supernatants were combined with the corresponding UB fractions. These were finally analyzed by Micro BCA Protein Assay kit to determine the concentration C* of unbound AAT in solution at the equilibrium with the resin, from which the amount q of bound AAT per volume of resin was determined by mass balance. The values of q vs. C* were plotted and fit using a Langmuir isotherm (Equation 1) to determine the values of maximum binding capacity (Qmax) and affinity dissociation constant (KD)).
Evaluation of AAT-binding peptides via in vitro and in silico AAT binding studies. […] Toyopearl resin was selected for ligand conjunction owing to its high chemical and mechanical stability as well as low non-specific protein adsorption, which make it an ideal substrate for direct peptide conjugation and protein chromatography.

[1] = target: T2, Human Alpha-1 antitrypsin (AAT) (human, UniProt P01009 25-418); assay: dynamic binding capacity at 10% breakthrough, Tris buffer pH 7.4, residence time 2 or 5 min
T2 construct: Pure AAT in buffer, as used in the isotherm and breakthrough studies; also called α-1 antitrypsin; human AAT

[2] = target: T2, Human Alpha-1 antitrypsin (AAT); assay: dynamic binding capacity at 10% breakthrough, PBS pH 7.4, residence time 2 min
Procedure: (§1) Dynamic binding capacity of peptide Toyopearl resins. The dynamic binding capacity at 10% breakthrough (DBC_{10%}, mg of AAT per mL resin) of the selected peptide-Toyopearl resins and the control AAT Select resin was measured. A volume of 0.1 mL of resin was wet packed in a Vici Jour PEEK column, washed with 10 column volumes (CVs) of 20% v/v ethanol, deionized water (3 CVs), and finally equilibrated with 10 CVs of binding buffer. The binding buffers used in this study were (i) 0.15M NaCl in 20 mM Bis-Tris HCl buffer at pH 6.0, (ii) PBS buffer at pH 7.4, and (iii and iv) 0.15M NaCl in 50 mM Tris HCl buffer at pH 7.4 or pH 8.0. A volume of 2 mL of solution of human AAT at 1 mg/mL in PBS buffer was continuously loaded on the column at the flow rate of either 0.05 mL/min (residence time, RT: 2 min) or 0.02 mL/min (RT: 5 min). After loading, the resin was washed with 10 CVs of binding buffer at the flow rate of 0.1 mL/min. AAT elution was then performed with 20 CVs of PBS in 2 M MgCl₂ at pH 7.4 at the flow rate of 0.2 mL/min. The resin was regenerated with 10 CVs of glycine buffer at pH 2.0 at the flow rate of 0.2 mL/min. The effluents were continuously monitored by UV spectrometry at 280 nm and the resulting chromatograms were utilized to calculate the DBC_{10%} of AAT.
(§2) Evaluation of AAT-binding peptides via dynamic binding measurements. Following the equilibrium binding studies, the selected peptide-Toyopearl resins were evaluated under dynamic conditions to evaluate the interplay of kinetic factors—chiefly, the AAT transport within the chromatographic particles and the formation of AAT:peptide complexes—on the resultant binding capacity. To that end, the dynamic binding capacity at 10% breakthrough (DBC_{10%}, mg of AAT per mL of resin) of the peptide-Toyopearl resins was measured at two values of residence time (RT), namely 2 and 5 min, and four different buffer compositions, namely 20 mM Bis-Tris HCl buffer (0.15M NaCl) at pH 6.0, PBS buffer at pH 7.4, and 50 mM Tris HCl buffer (0.15M NaCl) at pH 7.4 and 8.0, and compared with that of AAT Select from Cytiva (FIG. 4; the corresponding breakthrough curves are reported in FIG. 9).

[3] = target: T2, Human Alpha-1 antitrypsin (AAT); assay: dynamic binding capacity at 10% breakthrough, PBS pH 7.4, residence time 5 min
Procedure: as §1, §2

[4] = target: T2, Human Alpha-1 antitrypsin (AAT); assay: static adsorption isotherm, pure AAT in PBS pH 7.4, Langmuir fit
Procedure: Static binding capacity and affinity of peptide-Toyopearl resins. The selected sequences were synthesized on Toyopearl AF-Amino 650 M resin as described herein and evaluated via isotherm binding studies of AAT in non-competitive mode (e.g., pure AAT in PBS at pH 7.4) as described in prior work. Aliquots of 50 μL of peptide-Toyopearl resin were transferred in a tube, swollen in 20% v/v aqueous methanol, washed in MilliQ water, and finally equilibrated in PBS at pH 7.4. The resin aliquots were individually incubated with 0.5 mL of a solution of AAT at different concentrations (0.1, 0.25, 0.5, 0.75, 1.0, 1.5, 2.0, and 5.0 mg/mL) for 1.5 hrs at room temperature under gentle rotation. After incubation, the resin aliquots were centrifuged and the supernatants collected as unbound (UB) fraction; the resins were also washed with 0.5 mL of PBS for 30 min, and the supernatants were combined with the corresponding UB fractions. These were finally analyzed by Micro BCA Protein Assay kit to determine the concentration C* of unbound AAT in solution at the equilibrium with the resin, from which the amount q of bound AAT per volume of resin was determined by mass balance. The values of q vs. C* were plotted and fit using a Langmuir isotherm (Equation 1) to determine the values of maximum binding capacity (Qₘₐₓ) and affinity dissociation constant (KD)).

T2 sequence (P01009 25-418 limits assumed): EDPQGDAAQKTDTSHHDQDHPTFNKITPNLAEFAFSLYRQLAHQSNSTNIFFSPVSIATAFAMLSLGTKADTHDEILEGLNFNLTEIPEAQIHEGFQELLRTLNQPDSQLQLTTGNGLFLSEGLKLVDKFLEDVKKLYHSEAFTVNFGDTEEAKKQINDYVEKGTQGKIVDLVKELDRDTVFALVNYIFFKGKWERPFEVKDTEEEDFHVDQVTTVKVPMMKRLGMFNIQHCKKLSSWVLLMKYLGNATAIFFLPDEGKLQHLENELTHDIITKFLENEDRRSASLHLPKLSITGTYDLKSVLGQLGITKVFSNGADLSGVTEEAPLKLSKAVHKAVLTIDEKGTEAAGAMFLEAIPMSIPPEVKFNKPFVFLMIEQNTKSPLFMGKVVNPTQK
T1 sequence (P01009 25-418): as the sequence (P01009 25-418 limits assumed) above

| Kd [4] [nM] | Qmax [4] [mgAAT per mLR] | Molecule | further results |
| --- | --- | --- | --- |
| – | – | NHNKIHG-Toyopearl: peptide ligand NHNKIHG conjugated on Toyopearl AF-Amino-650M resin (NHNKIHG-{Toyopearl AF‑Amino‑650M resin}) | Qmax (mgAAT per mLR) (human AAT): 6.3 mgAAT per mLR |
| 510 | – | Alpha-1 Antitrypsin Select resin | DBC10% [1]: 12 mg/mL; DBC10% [2]: 12.3 mg/mL; DBC10% [3]: 12.8 mg/mL; Qmax (mgAAT per mLR) [4]: 13.5 |
| – | – | SHWHWAG-Toyopearl: peptide ligand SHWHWAG conjugated on Toyopearl AF-Amino-650M resin (SHWHWAG-{Toyopearl AF‑Amino‑650M resin}) | Qmax (mgAAT per mLR) (human AAT): 7.0 mgAAT per mLR |
| – | – | KFHAWNG-Toyopearl: peptide ligand KFHAWNG conjugated on Toyopearl AF-Amino-650M resin (KFHAWNG-{Toyopearl AF‑Amino‑650M resin}) | Qmax (mgAAT per mLR) (human AAT): 8.9 mgAAT per mLR |
| – | – | KHAWIFG-Toyopearl: peptide ligand KHAWIFG conjugated on Toyopearl AF-Amino-650M resin (KHAWIFG-{Toyopearl AF‑Amino‑650M resin}) | Qmax (mgAAT per mLR) (human AAT): 7.2 mgAAT per mLR |
| 3630 | 9.4 | FSHHSWKFG-{Toyopearl AF‑Amino‑650M resin} (not fully specified; printed as FSHHSWKFG-Toyopearl) [FSHHSWKFG-Toyopearl] | – |
| 4710 | 8.7 | AAHFHKG-{Toyopearl AF‑Amino‑650M resin} (not fully specified; printed as AAHFHKG-Toyopearl) [AAHFHKG-Toyopearl] | – |
| 3620 | 9.1 | KHSKAIAAG-{Toyopearl AF‑Amino‑650M resin} (not fully specified; printed as KHSKAIAAG-Toyopearl) [KHSKAIAAG-Toyopearl] | – |
| 630 | 15.8 | KWKHSHKWG-{Toyopearl AF‑Amino‑650M resin} (not fully specified; printed as KWKHSHKWG-Toyopearl) [KWKHSHKWG-Toyopearl] | DBC10% [2]: 8.9 mg/mL; DBC10% [3]: 11.6 mg/mL |
| 6700 | 3.51 | ANAKIKKKG-{Toyopearl AF‑Amino‑650M resin} (not fully specified; printed as ANAKIKKKG-Toyopearl) [ANAKIKKKG-Toyopearl] | – |
| 2480 | 8.9 | KFHAWNG-{Toyopearl AF‑Amino‑650M resin} (not fully specified; printed as KFHAWNG-Toyopearl) [KFHAWNG-Toyopearl] | – |
| 3280 | 7 | SHWHWAG-{Toyopearl AF‑Amino‑650M resin} (not fully specified; printed as SHWHWAG-Toyopearl) [SHWHWAG-Toyopearl] | – |
| 2320 | 6.3 | NHNKIHG-{Toyopearl AF‑Amino‑650M resin} [NHNKIHG-Toyopearl] | – |
| 2090 | 12.9 | WHAKKSKFG-{Toyopearl AF‑Amino‑650M resin} (not fully specified; printed as WHAKKSKFG-Toyopearl) [WHAKKSKFG-Toyopearl] | DBC10% [2]: 10.3 mg/mL; DBC10% [3]: 12.7 mg/mL |
| 950 | 16.3 | WHAKKSHFG-{Toyopearl AF‑Amino‑650M resin} (not fully specified; printed as WHAKKSHFG-Toyopearl) [WHAKKSHFG-Toyopearl] | DBC10% [2]: 9.3 mg/mL; DBC10% [3]: 12.5 mg/mL |
| 1420 | 7.2 | KHAWIFG-{Toyopearl AF‑Amino‑650M resin} (not fully specified; printed as KHAWIFG-Toyopearl) [KHAWIFG-Toyopearl] | – |
| 4670 | 5.1 | FEKWAKAHG-{Toyopearl AF‑Amino‑650M resin} (not fully specified; printed as FEKWAKAHG-Toyopearl) [FEKWAKAHG-Toyopearl] | – |
| 870 | 10.2 | KAWFKHWNG-{Toyopearl AF‑Amino‑650M resin} (not fully specified; printed as KAWFKHWNG-Toyopearl) [KAWFKHWNG-Toyopearl] | – |
